Assay results from the PETadex activity labels.

Substrate: BHET
Conditions: 120 h

Row | Protein | plate clearing
1 | unnamed (protein) MRARTRLTALAAGLTLALGAPAATAATADQAQPAASASVEHGPAPTKESIGVDGPYKVASKKAPIDLKRSFYGGTIYYPADAGKGETYGTVVTMPGFLEPGAVMDLVAKRLASHGFVVMRAEALTPFSIPLVRAQAVLSAQKVLHADADLAPIMDTERTALVGHSMGGGGVLHAAAMSEQDAVIPIHPWAQTIFPLVKEPTLTIGGLLDNVAPMVEYTLPIYASIGSETKGLFTDLAGTHWAGLVDNKVIQGRILSFVKLHVDGDTRYEQFVCAPAEKGFTYKSPC | not clears the plate
2 | unnamed (protein) MFPYVAVRVTEETNSRRTTLSNKAATRVSFNRQETDVKFKFVKTALVAAAMACSASAFAQYQKGPDPTTSSLERAGSFATRTLNVSSLSASGFGGGRIWYPTASGSYGVVAVSPGFTGTASTMYFWGERLSSHGFVVIVIETNTLYDQPDSRARQLTSALNYVVSQGNSRTSALYGKVDGNRRAVAGHSMGGGGTLIAAADNPSLKAAIPMAPWNLSSLSFSRIRVPTFIFSCQSDAIAPVAQHSNPFYNAIPSTTSKNLVEMRLDDHFCVMNGGGHYETLGKLGIAWVKRFVDQDTRYSKFLCGNEYNSTVRSTEVSSNRNNCPY | not clears the plate
3 | unnamed (protein) MKSFLKKIYLGTGMLLVSANALSYTPAPTPNPTPITTPVECQDDCDFSRGPNPTSSSIEGVGPYSVATQNVPSSVSGFGGGTIHYPRGISGTVGAIAVVPGFVSPESSIIWWGPRLASHGFVVITIATNSIFDQPASREAQLGRALDYVINQNNSSNSPISGLVDTSRLGAMGWSMGGGGSLRLASGDRLSAVIPLAPWNEGSRGFRQLETPTLVIACERDLIAPVGVHASPFYNAIPSTTDKAFLEVNNGSHSCANGGGINGGLLSKYGVSWMKRFIDNDTRYQQFLCGPNHAANPAISEYRDTCNY | not clears the plate
4 | unnamed (protein) MKGIRTRVLPVGKKNTGVKMRCAWRRRVSAFTQSAILHNTHSQETPVMSDPRLSVARLAWAGILLMGAASATCQAQTNPFERGPDPTSSLLNASAGPLATASVAVASPTGFGGGTIYYPTAANTYGVIALCPGFTGTQSSVAWLGSRLASHGFVVVTMNTNSSLDFPASRATQLMAALNHVINNSNATVKSRIDPNRRAVGGHSMGGGGSLIAAQNNPSLKGAYPLTPWNTSTNFSGVGVPTMIIGADGDTTAPVGSHARPFYASLPAATLKAYGELNGATHSTPTSTNTPTGRYAVSWMKRFVDTDTRYSPFLCGAEHTSYATATVFDRYQQNCPY | not clears the plate
5 | unnamed (protein) MNSNRTVPLRRAAIAVVLALTLVACDWKGPAPTDASLTAASGPFAVSTLAVPSSAGFGGGTIYYPSNVDGPFAAISVSPGFFSTQSAIAAWGPRLASHGFVVITINTTSLLADPTQRSTEQRQALAHVVNQGNTASSPIFGLVDGNRTGVAGHSMGGGASLISAQADPSIDAAMPFAPWNLGTNFAGITSPTLVLACQADGVAAPNSMASPMYNSIPATTKKMYLSVTNGDHSCANAPTGGNNDVGRYGVAFFKRWLDSDTRYDPWMCGASAPTAGGALNEVRSTCPF | not clears the plate
6 | unnamed (protein) MASRQSKTRLTRRAKLTALAAATLLSFAAQAQTVIFSENFGSGLGQFTTSGTVSTSSGAAVIQGCYNCTDGAIVSKSISTVGYTGLKLSYDRSTTGLDSGEYGVSAYLVSGGAWTAIENITSSSGRVTLTLPAAVENQASVQLRFRVSSSLSTETLTVDNVVLEGTSASGGGGGGAGYEKGPNPTNAALEASAGPFTVATKAVSASSASGYGGGTIYYPTNVTGTLGAVVVIPGYTAYQSSVSWWGSRLASHGFVVMTIDTNSIYDLPPARATQLMAAVNQLKVFNATAGHVIQGKIDTTRMGIMGWSYGGGGTLIAARDNPSLKAAIPFAPKTTTGTDFSGITMPTLIIGCESDSTAPVSSWSIPFYNSIPAAVKKAYLEVNNGDHFCPTTSGPSSVKPILGKYGVSWMKRWLDNDTRYSTFLCGSPHTTDLGNTAVISEYRDNCPY | not clears the plate
7 | unnamed (protein) MTTSNTRTLARLALAAAALLLSAAAQAQANPYQRGPDPTAASLEATAGPFAVATTKVASPSGYGGGTVYYPTTTEGPFGLIAVAPGFTETQSAISWWGPRLASHGFVVITIDTKSTLDQPASRAKQLMAALNYVVALSQTSSSPFYGKVDASRQGVMGHSMGGGGTLEAARDNPTLKAAIPLAPWNTTKNFSKVTVPTLIIACENDAIAPVSSHASPFYDSLPSSLDKAYLELKGADHFCTNSSATNKTVIGKYGVAWMKRFVDNDTRYSPFLCGAPHQADLSGSVISRYKDNCPY | not clears the plate
8 | unnamed (protein) MKTTQFLRTAVCTFTLSFSLTAFSGGGGGSSDNDGNLPTPNSCTSNCGFEIGPNPNLNFVRASQGPLPVSTTTVASSVDGFGGGTIYYPSNISDEVAAIAISPGFTARQSSIAWWGPILASHGFVVITIDTNSRFDQPDSRGRQLDSSLSYLINESNRSNSPISGRVDDSRLAAMGHSMGGGGSLRSAARNRLSAAMPLAPFRVGGNDFDQIRVPTMIMACENDVVAPVGVHARPFYNRIPGSTDKVLLEINNGSHSCANGESSGNRPLLSTYGVSWMKRFLDKDRRYNQFLCGPNHEANSQISDFRDTCNF | not clears the plate
9 | unnamed (protein) MLLVSANALSYTPAPVANPAPIAAPAPCQDCDFNRGPNPTNSSVERLGPYSVATQRVSSSVSGFGGGTIHYPTNIAGKVGAIAVVPGFVSPESSIRWWGPQLASHGFVVITIATNSIFDQPSSRERQLGRALDYVINQTNSSGTAISGLVDTNRLGAMGWSMGGGGSLRLANGGRLSAVIPLAPWNEGASGFSQLTTPTLVVACENDLIAPVRVHASPFYNVIPNTTDKAFLEVNNGSHSCANGGGVNGGLLSKYGVSWMKRFIDEDTRYQQFLCGPNHSANPAISEYRDTCNY | not clears the plate
10 | unnamed (protein) MISTRRFPMRRLAIGLVFVFAAVLGACDWRGPTPTEQLLTASTGPFTVSTLAVPTSAGFGGGTIYYPSTTPGPFAVVSLSPGFTESQSAIAGWGPRLASHGFVTIIINTSNPFIDPSQRSTEQRQALTYVVTQGQTSGSPIFGKVDGQRRGVGGHSMGGGASLISAQADPTIRAVMPMAPWNSSASFPGITSPTLILACQNDGIAPVGSHASPMYNSIPASTKKEYISVAGGDHSCANAPTGGGSAVGKFGVAFLKRFLDNDGRYDPWTCGASKPVAGGSLSEVRSTCPF | not clears the plate
11 | unnamed (protein) MPSADEPDAGTAPPPEPGSNHWERGPEPTAESASMPGPYQVESLTAELPDRVEYLSQTLWYPTDAEPPFAGFAIVPGFVSPEGSIAEWGPFLASHGIVVLTIGTNTGGDLPDVRALALAAAVEVLKGEHTRSGSPLEGSMDTDRMAVGGWSMGGGGTLLAIAADPSLKAGIGLTPWHIGALPFTEISVPTLMFAGTADVLAGGMSQGFYDAIPASTPKTLFEILGADHFYSNNPLLPNIEVGRYGLSWLKVFLEGDERYRQFLSVEPMGASDFRTTAP | not clears the plate
12 | unnamed (protein) MKSQFRKKIKKAKLESALKVFGAFMFASAISTPAAFAINPGGNSDGNSDAGCNSNCSLGIDPTSEMLEKEQGPYVIDYIDIPKSVAGFAGGRIHFPKGLDQRLGLVVIGPGFLYTDESSSRWLGPRLASNGFVTVNINFNTVMDQPDMRANQYDKALDYVIKLSKDSSSPLYGLVDENRLGAAGWSMGGGAALKLSNMRPLKAIMPWAPWYIPAGAFSSVQTPSLIIACKGDIIAPEGIHASAFYNVIPDSTPKEYVKFAKGNHWCSNNRSNYKPLIGKLSIAWFKRFMDEDNRYEKFICDGDIKDESGVAEFRDNCGSWK | not clears the plate
13 | unnamed (protein) MKFEPLPGASPAVQPSMRFVLKRAGMATALLLSSFAAQAQVALVQENFSAGLGNFTAVGTVNTSDGSARLQGCYGCTDAVITSNAISTQGFTNLSLSFDRATAGLDTGEAGTAEFSTDGANWTIVESTRTTTTGRVSFALPASAAAQAALRLRFRINASLSSETYVVDNIQLTGTPGDPGDPDDPGANPFAKGPNPTAELLESSTGPFTYSSTVVARSAASGYGGGTIYHPTNVAGPFAAIAISPGYTGTKSTMSWWGQRLASHGFVVITIDTNSTTDQPSSRATQLMASLRQLVTFSNTSSHPIYRKVDPNRLGVMGHSMGGGGTLIAARDNPTLKAAIPLAPWSSVGNTNFSSVQVPTLVVACEADAIAPVAQHASPFYNSISGSTRKAYIEMNNGDHLCVMTGNSYTRIMGKYGVSWMKRFMDNDTRYSPFLCGAPHQADLSNAQVSEYRENCPY | clears the plate (z > 3 vs empty vector)
14 | unnamed (protein) MQRKRYNTITNRARASLLAGVGLAFFSVLAQADVLFQENFDSSLGQFTSTGSVSVTTSGARMAGSFGGTDGAITSSPISTVGFTGITLTLTRTTTGLDSGEAGIAEFSTNGSTYTVIQSLQTASGAVTLNLPATAGGQSSLRLRFRVNASSSTEYFTVDSIRLEGTPGSGGGGGGTNPYQRGPAPTTSSLDASRGPFSVGSRTVSDTQVSGYDGGTLWYPTNTSEGPFAAIAIIPGFLSSEGSIREWGPRLASWGFVVITVETLTYGDLPPSRRDQLIAAMNDVLMWSDQSGHPIYGKVDKTRQALMGWSMGGGGTLLGLQENPTRFKAGIGLAPWNSTETFTSSIRQPVLIFACESDIIAPVASHAYPFYRNMPTTNKKAFAEVNNGDHFCANDPRNNSGRLGRYGVSWMKRFLDDDTRFTQFLCGTHSTWTFSRYLSTCPY | not clears the plate
